T1: murine OX40 on CHOK1 cells (murine, UniProt P47741 20-272)
T1 chain: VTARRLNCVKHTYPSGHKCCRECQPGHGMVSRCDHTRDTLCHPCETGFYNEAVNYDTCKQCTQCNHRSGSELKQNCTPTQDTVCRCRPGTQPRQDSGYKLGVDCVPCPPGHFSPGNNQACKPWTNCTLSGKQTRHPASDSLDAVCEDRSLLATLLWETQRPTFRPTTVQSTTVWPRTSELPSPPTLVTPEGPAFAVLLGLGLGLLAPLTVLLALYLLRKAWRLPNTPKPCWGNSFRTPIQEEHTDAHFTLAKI

T2: murine PD-L2 on CHOK1 cells (murine, UniProt Q9WUL5 20-247)
T2 chain: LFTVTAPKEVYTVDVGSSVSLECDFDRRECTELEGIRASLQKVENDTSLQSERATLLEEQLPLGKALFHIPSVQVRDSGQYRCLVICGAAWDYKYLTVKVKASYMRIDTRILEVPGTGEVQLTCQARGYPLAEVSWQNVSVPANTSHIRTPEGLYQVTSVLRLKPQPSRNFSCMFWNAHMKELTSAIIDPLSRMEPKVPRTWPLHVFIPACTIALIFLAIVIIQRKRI


Key:
mCD40L-Fc = assay: SPR
[1] = molecular target: murine PD-L1 on CHOK1 cells (murine, UniProt Q9EP73 19-290); assay: flow
Sequence of murine PD-L1 on CHOK1 cells (Q9EP73 19-290): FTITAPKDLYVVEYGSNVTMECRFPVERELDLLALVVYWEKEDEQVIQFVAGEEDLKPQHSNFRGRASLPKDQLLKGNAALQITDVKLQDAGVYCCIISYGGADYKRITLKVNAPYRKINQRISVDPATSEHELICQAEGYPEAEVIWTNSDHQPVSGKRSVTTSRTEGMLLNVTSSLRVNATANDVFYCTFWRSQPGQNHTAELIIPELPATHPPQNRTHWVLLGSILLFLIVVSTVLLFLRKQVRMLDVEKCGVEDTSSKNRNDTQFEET

[2] = molecular target: T1, murine OX40 on CHOK1 cells; assay: flow cytometry cell binding
[3] = molecular target: T2, murine PD-L2 on CHOK1 cells; assay: flow cytometry cell binding

Kd (mCD40L-Fc) [µM] | EC50 [1] [µM] | EC50 [2] [µM] | EC50 [3] [µM] | Binder
0.00323 |  |  |  | mCD40 (receptor) VTCSDKQYLHDGQCCDLCQPGSRLTSHCTALEKTQCHPCDSGEFSAQWNREIRCHQHRHCEPNQGLRVKKEGTAESDTVCTCKEGQHCTSKDCEACAQHTPCIPGFGVMEMATETTDTVCHPCPVGFFSNQSSLFEKCYPWTSCEDKNLEVLQKGTSQTNVICGLKSRMR
 | 0.0278 | 0.00628 | 0.0477 | murine PD-1-Fc-OX40L chimeric protein (Fc fusion) LEVPNGPWRSLTFYPAWLTVSEGANATFTCSLSNWSEDLMLNWNRLSPSNQTEKQAAFCNGLSQPVQDARFQIIQLPNRHDFHMNILDTRRNDSGIYLCGAISLHPKAKIEESPGAELVVTERILETSTRYPSPSPKPEGRFQGMSSSPAKDPPIQRLRGAVTRCEDGQLFISSYKNEYQTMEVQNNSVVIKCDGLYIIYLKGSFFQEVKIDLHFREDHNPISIPMLNDGRRIVFTVVASLAFKDKVYLTVNAPDTLCEHLQINDGELIVVQLTPGYCAPEGSYHSTVNQVPL

Reference: patent US20200222503A1 (published 2020)
